{"source": "patent US20150174202A1", "about": "“Methods and Compositions for Modulating Beta Cell Proliferation” (The Board of Trustees of the Leland Stanford Junior …, priority 2011, published 2015)", "molecules": {"B1": {"name": "prolactin (protein, UniProt P01236 29-227, looked up)", "Prolactin": "LPICPGGAARCQVTLRDLFDRAVVLSHYIHNLSSEMFSEFDKRYTHGRGFITKAINSCHTSSLATPEDKEQAQQMNQKDFLSLIVSILRSWNEPLYHLVTEVRGMQEAPEAILSKAVEIEEQTKRLLEGMELIVSQVHPETKENEIYPVWSGLPSLQMADEESRLSAYYNLLHCLRRDSHKIDNYLKLLKCRIIHNNNC", "notes": "mitogen capable of promoting β-cell proliferation"}, "B2": {"name": "Wnt3a: purified Wnt3a protein (protein, UniProt P56704 19-352, looked up)", "Protein Wnt-3a": "SYPIWWSLAVGPQYSSLGSQPILCASIPGLVPKQLRFCRNYVEIMPSVAEGIKIGIQECQHQFRGRRWNCTTVHDSLAIFGPVLDKATRESAFVHAIASAGVAFAVTRSCAEGTAAICGCSSRHQGSPGKGWKWGGCSEDIEFGGMVSREFADARENRPDARSAMNRHNNEAGRQAIASHMHLKCKCHGLSGSCEVKTCWWSQPDFRAIGDFLKDKYDSASEMVVEKHRESRGWVETLRPRYTYFKVPTERDLVYYEASPNFCEPNPETGSFGTRDRTCNVSSHGIDGCDLLCCGRGHNARAERRREKCRCVFHWCCYVSCQECTRVYDVHTCK"}}, "type_in_all_cases": "cell-based", "key": {"Ezh2": {"system": "Ezh2", "assay": "Ezh2/Ezh1 expression in cultured mouse islets (real-time RT-PCR, western blot)", "conditions": "juvenile mouse islets exposed to insulin or prolactin, 2 days", "procedure": "Mouse pancreatic islets were purified as described in Chen et al. (2009) Genes Dev. 23, 975-985 and used immediately for assays described in the text. To study Ezh2 induction in cultured islets exposed to mitogens, freshly isolated islets from 2-3-week old, and 7-12-month old C57BL/6 mice were recovered and equilibrated overnight at 37° C., 5% CO2 in RPMI-1640 medium supplemented with 0.5% fetal bovine serum (FBS), 0.2% bovine albumin (BSA) and 2% penicillin/streptomycin. […] Immunostaining of BrdU and insulin was performed on processed islets, and β-cell proliferation rate was determined by quantifying percentage of insulin+ cells with BrdU+. […] RNA concentration was measured with a RiboGreen RNA quantification assay (Invitrogen). One-step quantitative RT-PCR was performed and analysed using an ABI Prism 7300 detection system (Applied Biosystems) with TaqMan one-step RTPCR Master Mix Reagents and appropriate amounts (10-100 ng) of islet total RNA as the template. We calculated the ratio of mRNA for the gene of interest to the amount of internal control mRNA of peptidylprolyl isomerase A (cyclophilin A, PPIA), and then normalized the ratio for each gene to its median. […]"}, "PDGFRA": {"system": "PDGFRA", "assay": "Pdgfra expression in cultured adult mouse islets exposed to Wnt3a or R-Spondin", "conditions": "isolated adult mouse islets (4-5 months of age) in culture", "from_the_text": "In diverse tissues, including the pancreas, Wnt signaling activates expression of Axin2, a negative regulator of the pathway. […] This spatially and temporally restricted expression pattern is reminiscent of declining Pdgfra, Pdgfrab, and Ezh2 levels and β-cell proliferation in animals (FIG. 22B-D, Chen et al 2009, 2011). Likewise, in mice harboring a ‘Top-Gal’ synthetic reporter gene of Wnt signaling activity, β-galactosidase reporter expression declines in islet β-cells with age (FIG. 22E-G). Thus, changes in Wnt signaling underlie age-dependent reductions of Pdgfr expression and β-cell PDGF signaling competence in β-cells. Consistent with this, culture of isolated adult mouse islets (4-5 months of age) with purified Wnt3a or the Wnt agonist R-Spondin increased Pdgfra mRNA expression. As described above, Pdgfra signaling induced Ezh2 expression in islets. To assess the function of Pdgfra induced by R-Spondin, R-Spondin was added to adult mouse islets, followed by addition of purified PDGF-AA (100 ng/ml), and Ezh2 mRNA levels were then measured."}, "PDGFRα and PDGFRβ": {"system": "PDGFRα and PDGFRβ", "assay": "PDGFR mRNA in cultured adult human islets exposed to Wnt3a or R-Spondin"}, "[1]": {"conditions": "adult human islets (mean age >40 years), exposed for two days"}}, "note": "“Also recorded” adds a separate entry of the source."}
{"molecule": "B1", "values": [{"measurement": "Ezh2 mRNA levels after mitogen exposure", "setting": "Ezh2", "result": "did not detectably alter; also recorded: did not induce"}]}
{"molecule": "B2", "values": [{"measurement": "Pdgfra mRNA expression", "setting": "PDGFRA", "result": "increased"}, {"measurement": "mRNA levels encoding PDGFRα", "setting": "PDGFRα and PDGFRβ; [1]", "result": "increased"}, {"measurement": "mRNA levels encoding PDGFRβ", "setting": "PDGFRα and PDGFRβ; [1]", "result": "increased"}, {"measurement": "dose dependence of induction of PDGFRA and PDGFRB mRNA", "setting": "PDGFRα and PDGFRβ; cultured adult human islets", "result": "depends on the dose"}]}
